Among the data in patent US20220289859A1 are Specific FcγRIIIa binding activity values, retold here.

This assay addresses FcγRIIIa (UniProt P08637). The experiment in a line: SPR as in Example 4; glyco-enriched samples of belantamab.

FcγRIIIa, sequence (P08637 17-208 limits assumed): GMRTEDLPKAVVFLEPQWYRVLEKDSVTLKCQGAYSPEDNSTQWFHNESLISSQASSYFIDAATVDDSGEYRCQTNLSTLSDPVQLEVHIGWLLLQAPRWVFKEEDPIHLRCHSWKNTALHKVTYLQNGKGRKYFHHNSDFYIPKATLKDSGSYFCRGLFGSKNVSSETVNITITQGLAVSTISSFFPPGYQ

As for “belantamab deglycosylated with PNGaseF (antibody)”, the Specific FcγRIIIa binding activity is 8%.
